The target of this experiment is CAR (coxsackie and adenovirus receptor) (human) (UniProt P78310). Put plainly: cell-based or functional assay.

From patent US20220090025A1 come the findings set out here.

Sequence of UniProt P78310 (P78310 20-365): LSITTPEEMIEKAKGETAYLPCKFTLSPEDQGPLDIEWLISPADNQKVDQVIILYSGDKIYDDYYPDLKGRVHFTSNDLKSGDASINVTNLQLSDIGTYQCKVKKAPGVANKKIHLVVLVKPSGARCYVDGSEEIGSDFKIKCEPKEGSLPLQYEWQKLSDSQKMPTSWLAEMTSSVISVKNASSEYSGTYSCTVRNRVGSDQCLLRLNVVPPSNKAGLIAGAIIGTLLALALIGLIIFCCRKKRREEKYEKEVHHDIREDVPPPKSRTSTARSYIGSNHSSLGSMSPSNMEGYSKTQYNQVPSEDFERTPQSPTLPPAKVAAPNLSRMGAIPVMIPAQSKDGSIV

Regarding “CAR-specific fiber protein (fiber protein of adenovirus) (ligand)”, the reduction of GFP transduction of U343 cells by naked type Ad (MOI 20) after pretreatment with fiber protein at 0.2 µg/ml, flow cytometry was 67 % reduced and the reduction of GFP transduction of U343 cells by naked type Ad (MOI 20) after pretreatment with fiber protein at 2 µg/ml, flow cytometry turned out to be 90 % reduced.
